In assay [1] the target is T1, biotinylated N-glycopeptide A3Man (AVSHN(M3N2)ASLE) (also: biotinylated, position not given here).
T1 peptide: AVSHN(M3N2)ASLE
The assay is described as follows: BLI.

For assay [2], the target named is G2PB. Kind of assay: BLI. (In general: BLI is a label-free optical method that tracks binding on a fibre tip over time.)

No end group written: not given here. M3N2 = N-glycan

B1: Variant Fbs1-7 (designed binder)
chain: MGSSHHHHHHHHSSGENLYFQSHMASQQEGLVPEGSADEERDHWQQFYFLSKRRRNLLRNPCGEEDLEGWSDVEHGGDGWRVERLPGDGGVEFTQDDSVKKYFASSYRWCRKAQVIDLQAEGYWEELLDTTQPAIVVKDWYSGRTDAGSLYELTVRLLSENEDVLAEFATGQVAVPEDGSWMEISHTFIDYGPGVRFVRFEHGGQDSVYWKGWFGARVTNSSVWVEP
Turning to B1, in assay [1], the Kd stood at 860 nM.

B2: Variant Fbs1-6 (designed binder)
chain: MGSSHHHHHHHHSSGENLYFQSHMASQQEGLVPEGSADEERDHWQQFYFLSKRRRNLLRNPCGEEDLEGWSDVEHGGDGWRVRELPGDGGVEFTQDDSVKKYFASSYRWCRKAQVIDLQAEGYWEELLDTTQPAIVVKDWYSGRTDAGSLYELTVRLLSENEDVLAEFATGQVAVPEDGSWMEISHTFIDYGPGVRFVRFEHGGQDSVYWKGWFGARVTNSSVWVEP
As for B2, the Kd in assay [1] amounted to 200 nM.

B3: Fbs1-1 (WT) (designed binder)
chain: MGSSHHHHHHHHSSGENLYFQSHMASQQEGLVPEGSADEERDHWQQFYFLSKRRRNLLRNPCGEEDLEGWSDVEHGGDGWRVEELPGDNGVEFTQDDSVKKYFASSFEWCRKAQVIDLQAEGYWEELLDTTQPAIVVKDWYSGRTDAGSLYELTVRLLSENEDVLAEFATGQVAVPEDGSWMEISHTFIDYGPGVRFVRFEHGGQDSVYWKGWFGARVTNSSVWVEP
B3: the Kd in assay [2] turned out to be 27500 nM.

B4: Fbs1-6 (E153R.N159G.F177Y.E178R) (designed binder)
chain: MGSSHHHHHHHHSSGENLYFQSHMASQQEGLVPEGSADEERDHWQQFYFLSKRRRNLLRNPCGEEDLEGWSDVEHGGDGWRVRELPGDGGVEFTQDDSVKKYFASSYRWCRKAQVIDLQAEGYWEELLDTTQPAIVVKDWYSGRTDAGSLYELTVRLLSENEDVLAEFATGQVAVPEDGSWMEISHTFIDYGPGVRFVRFEHGGQDSVYWKGWFGARVTNSSVWVEP
On to B4, for which the Kd in assay [2] worked out at 790 nM.

B5: Fbs1-2 (F177Y.E178R) (designed binder)
chain: MGSSHHHHHHHHSSGENLYFQSHMASQQEGLVPEGSADEERDHWQQFYFLSKRRRNLLRNPCGEEDLEGWSDVEHGGDGWRVEELPGDNGVEFTQDDSVKKYFASSYRWCRKAQVIDLQAEGYWEELLDTTQPAIVVKDWYSGRTDAGSLYELTVRLLSENEDVLAEFATGQVAVPEDGSWMEISHTFIDYGPGVRFVRFEHGGQDSVYWKGWFGARVTNSSVWVEP
For the molecule B5, the Kd in assay [2] was found to be 26800 nM.

B6: Fbs1-8 (E153R.E154R.N159G.F177Y.E178R) (designed binder)
chain: MGSSHHHHHHHHSSGENLYFQSHMASQQEGLVPEGSADEERDHWQQFYFLSKRRRNLLRNPCGEEDLEGWSDVEHGGDGWRVRRLPGDGGVEFTQDDSVKKYFASSYRWCRKAQVIDLQAEGYWEELLDTTQPAIVVKDWYSGRTDAGSLYELTVRLLSENEDVLAEFATGQVAVPEDGSWMEISHTFIDYGPGVRFVRFEHGGQDSVYWKGWFGARVTNSSVWVEP
Turning to B6, the Kd in assay [2] turned out to be 1190 nM.

B7: Variant Fbs1-3 (designed binder)
chain: MGSSHHHHHHHHSSGENLYFQSHMASQQEGLVPEGSADEERDHWQQFYFLSKRRRNLLRNPCGEEDLEGWSDVEHGGDGWRVEELPGDGGVEFTQDDSVKKYFASSYRWCRKAQVIDLQAEGYWEELLDTTQPAIVVKDWYSGRTDAGSLYELTVRLLSENEDVLAEFATGQVAVPEDGSWMEISHTFIDYGPGVRFVRFEHGGQDSVYWKGWFGARVTNSSVWVEP
Consider B7, for which, in assay [1], binding was put at a Kd of 880 nM.

B8: Variant Fbs1-8 (designed binder)
chain: MGSSHHHHHHHHSSGENLYFQSHMASQQEGLVPEGSADEERDHWQQFYFLSKRRRNLLRNPCGEEDLEGWSDVEHGGDGWRVRRLPGDGGVEFTQDDSVKKYFASSYRWCRKAQVIDLQAEGYWEELLDTTQPAIVVKDWYSGRTDAGSLYELTVRLLSENEDVLAEFATGQVAVPEDGSWMEISHTFIDYGPGVRFVRFEHGGQDSVYWKGWFGARVTNSSVWVEP
Molecule B8 showed a Kd in assay [1] of 1140 nM.

B9: Fbs1-3 (N159G.F177Y.E178R) (designed binder)
chain: MGSSHHHHHHHHSSGENLYFQSHMASQQEGLVPEGSADEERDHWQQFYFLSKRRRNLLRNPCGEEDLEGWSDVEHGGDGWRVEELPGDGGVEFTQDDSVKKYFASSYRWCRKAQVIDLQAEGYWEELLDTTQPAIVVKDWYSGRTDAGSLYELTVRLLSENEDVLAEFATGQVAVPEDGSWMEISHTFIDYGPGVRFVRFEHGGQDSVYWKGWFGARVTNSSVWVEP
B9 gave a Kd in assay [2] of 540 nM.

B10: Variant Fbs1-2 (designed binder)
chain: MGSSHHHHHHHHSSGENLYFQSHMASQQEGLVPEGSADEERDHWQQFYFLSKRRRNLLRNPCGEEDLEGWSDVEHGGDGWRVEELPGDNGVEFTQDDSVKKYFASSYRWCRKAQVIDLQAEGYWEELLDTTQPAIVVKDWYSGRTDAGSLYELTVRLLSENEDVLAEFATGQVAVPEDGSWMEISHTFIDYGPGVRFVRFEHGGQDSVYWKGWFGARVTNSSVWVEP
In turn, B10 returned a Kd in assay [1] of 610 nM.

B11: Variant Fbs1-1 (designed binder)
chain: MGSSHHHHHHHHSSGENLYFQSHMASQQEGLVPEGSADEERDHWQQFYFLSKRRRNLLRNPCGEEDLEGWSDVEHGGDGWRVEELPGDNGVEFTQDDSVKKYFASSFEWCRKAQVIDLQAEGYWEELLDTTQPAIVVKDWYSGRTDAGSLYELTVRLLSENEDVLAEFATGQVAVPEDGSWMEISHTFIDYGPGVRFVRFEHGGQDSVYWKGWFGARVTNSSVWVEP
Consider B11, for which the Kd in assay [1] came out at 4300 nM.

B12: Fbs1-7 (E154R.N159G.F177Y.E178R) (designed binder)
chain: MGSSHHHHHHHHSSGENLYFQSHMASQQEGLVPEGSADEERDHWQQFYFLSKRRRNLLRNPCGEEDLEGWSDVEHGGDGWRVERLPGDGGVEFTQDDSVKKYFASSYRWCRKAQVIDLQAEGYWEELLDTTQPAIVVKDWYSGRTDAGSLYELTVRLLSENEDVLAEFATGQVAVPEDGSWMEISHTFIDYGPGVRFVRFEHGGQDSVYWKGWFGARVTNSSVWVEP
In assay [2], B12 returned a Kd of 1450 nM.

By Kd is commonly meant the concentration at which binding is half-saturated.

The values above are taken from patent US20240109945A1 (published 2024).
